# From patent US20150216933A1, “HEMATOPOIETIC STEM CELL GROWTH FACTOR” (DUKE UNIVERSITY, priority 2008, published 2015)
# B1: PTN: Pleiotrophin, heparin binding growth factor; recombinant human PTN purchased from R&D systems (protein, UniProt P21246 33-168, looked up)
# Pleiotrophin: GKKEKPEKKVKKSDCGEWQWSVCVPTSGDCGLGTREGTRTGAECKQTMKTQRCKIPCNWKKQFGAECKYQFQAWGECDLNTALKTRTGSLKRALHNAECQKTVTISKPCGKLTKPKPQAESKKKKKEGKKQEKMLD
# Columns and labels:
# BM 34−KSL cells = assay: Competitive repopulating unit (CRU) assay of 34−KSL cell progeny cultured with TSF or TSF+PTN (Example 2); format: in vivo, mouse
# Protocol: BM 34^−KSL cells were either isolated for injection into recipient animals, or placed into cultures containing TSF alone, TSF+PTN, TSF+HUBECs+goat IgG, or TSF+HUBECs+goat anti-PTN. Recipient C57BL6 animals (CD45. 2^+) received 950 cGy total body irradiation (TBI) and were then injected via tail vein with limiting doses of BM 34^−KSL cells or their progeny following culture. 1×10^5 host BM MNCs were co-injected-into recipient mice as competitor cells. Multilineage hematologic reconstitution was measured in the PB by flow cytometry over time post-transplant as previously described (Reya, et al, Nature 423:409-14 (2003), Salter et al, Blood 113:2104-7 (2009)). Animals were considered to be engrafted if donor CD45. 1^+ cells were present at ≧1% in the PB (Chute et al, Blood 100:4433-9 (2002), Chute et al, Blood 105: 576-83 (2005), (Chute et al, Proc Natl Acad Sci USA 103, 11707-12 (2006)). CRU estimates were performed using L-Calc software (Stem Cell Technologies) as previously described (Reya, et al, Nature 423:409-14 (2003), Chute et al, Blood 109:2365-72 (2007), Chute et al, Proc Natl Acad Sci USA 103, 11707-12 (2006)).
# In order to determine if treatment with PTN could induce functional HSC expansion in culture, competitive repopulating unit (CRU) assays were performed using limiting dilutions of donor CD45. 1^+ BM 34^−KSL cells transplanted into lethally irradiated CD45. 2^+ C57Bl6 mice. Peripheral blood (PB) was collected from primary recipient mice at 4 weeks, 12 weeks and 24 weeks to assess the engraftment of donor CD45. 1^+ cells in the PB of recipient mice. […] 1^+ donor cell engraftment in the PB compared to mice transplanted with the identical dose of day 0 34^−KSL cells and mice transplanted with the progeny of 34^−KSL cells cultured with TSF alone (FIG. 6C, P=0.0008 and P=0.001, respectively). […] The PB engraftment of multilineage donor CD45. […] As expected, the CRU frequency within the progeny of 34^−KSL cells following culture with cytokines alone (TSF) was reduced to 1 in 58 cells (95% CI: 1/31 to 1/108). Conversely, the CRU frequency within the progeny of 34^−KSL cells cultured with TSF+PTN was 1 in 10 cells (95% CI: 1/5 to 1/20). Therefore, the addition of PTN induced a 4-fold increase in HSCs compared to input and a 6-fold increase compared to the progeny of TSF alone. […] 1^+ cell reconstitution at all time points through 24 weeks compared to mice transplanted with day 0 34^−KSL cells or their progeny following culture with TSF alone (FIG. 6F). This corresponded to an increased CRU frequency in the PTN-treated progeny compared to input 34^−KSL cells at all time points. […]
# 34−KSL cells = assay: Competitive repopulating assay at 4 weeks (Example 1); format: in vivo, mouse; conditions: lineage repopulation in transplanted mice
# Source text: 34^−KSL cells from B6.SJL mice, carrying the CD45.1 allele, were sorted into 96-well U-bottomplates (BD) containing IMDM+10% FBS+1% pcn/strp. Day 0 34^−KSL cells were either isolated for injection into recipient animals, or placed into cultures containing TSF, TSF+recombinant PTN, co-culture with HUBECs+goat IgG, or HUBECs+goat anti-PTN. Recipient C57BL6 animals, expressing the CD45.2 allele, received an LD100/30 dose of 950 cGy total body irradiation (TBI) using a Cs137 irradiator and then transplanted via tail vein injection with 10, 30 or 100 34^−KSL cells or their progeny following culture. A rescue dose of 1×10^5 non-irradiated CD45.2 MNCs were co-injected into recipient mice. Multi-lineage hematologic reconstitution was monitored in the peripheral blood (PB) by flow cytometry, as previously described, at 4, 8, 12, and 24 weeks posttransplant. PB was collected via submandibular puncture; cells were treated with RBC lysis buffer (Sigma-Aldrich), and washed twice prior to staining with FITC- or PE-CD45.1, FITC-CD45.2, PE-anti-Thy 1.2, APC-anti-B220, APC-anti-Ter-119, or PE-anti-Mac-1 and PE-anti-Gr1. Animals were considered to be engrafted if donor CD45.1 cells were present at >1% for all lineages (Zhang et al, Nat. Med. 12:240-245 (2006)).
# For the competitive repopulating assays, recipient CD45. […]
# GFI-1 = assay: qRT-PCR of KSL cells after culture with TSF+PTN; format: cell-based, mouse; conditions: TSF+100 ng/mL PTN x 7 days vs TSF alone
# Protocol: (§1) FIGS. 7A and 7B. […] (FIG. 7B) BM KSL cells were placed in culture with TSF (black bars) or TSF+100 ng/mL PTN (gray bars)×7 days and KSL cells were then isolated via FACS-sorting at day +7 for qRT-PCR analysis and comparison of gene expression. […] All comparisons were one tailed t tests.
# (§2) RT-PCR analyses of PTN in ECs and HES-1, GFI-1 and PTEN in BM KSL cells and FACS-sorted KSL cells following culture were performed using a 2-step RTPCR reaction as previously described (Chute et al, Proc Natl Acad Sci USA 103, 11707-12 (2006)). Conditioned medium (CM) was generated from HUBECs and non-brain ECs as previously described (Chute et al, Blood 100:4433-9 (2002), Chute et al, Blood 105: 576-83 (2005)) and ELISA for PTN was performed following manufacturer's guidelines.
# (§3) In order to determine a potential mechanism through which PTN mediates HSC expansion, an examination was made as to whether PTN altered pathways that are known to be affected by RPTPβ/ζ (Meng et al, Proc Natl Acad Sci USA 97: 2603-8 (2000), Stoica et al, J Biol Chem 276:16772-9 (2001), Landgraf et al, J Biol Chem 283:25036-45 (2008), Deuel et al, Arch Biochem Biophys 397:162-71 (2002)). Canonical PTN signaling occurs via binding and inactivation of RPTPβ/ζ (Meng et al, Proc Natl Acad Sci USA 97: 2603-8 (2000)), which can facilitate the tyrosine phosphorylation of several intracellular substrates, including Akt and β-catenin (Souttou et al, J Biol Chem 272:19588-93 (1997), Gu et al, FEBS Lett 581:382-8 (2007)). […] BM 34^− KSL cells were treated with TSF with and without 100 ng/mL PTN in the presence and absence of 10 μM wortmannin, a PI 3-kinase inhibitor (Souttou et al, J Biol Chem 272:19588-93 (1997)).
# HES-1 = assay: qRT-PCR of KSL cells after culture with TSF+PTN; format: cell-based, mouse; conditions: TSF+100 ng/mL PTN x 7 days vs TSF alone
# Protocol: as §1, §2, §3
# PTEN = assay: qRT-PCR of KSL cells after culture with TSF+PTN; format: cell-based, mouse; conditions: HSCs following PTN exposure
# Protocol: as §1, §2, §3
molecule,measurement,setting,value
B1,increase in HSCs compared to input,BM 34−KSL cells; 12 week CRU,4 fold
same,increase in HSCs compared to the progeny of TSF alone,BM 34−KSL cells; 12 week CRU,6 fold
same,increase in CD45.1+ donor cell engraftment in the PB,"BM 34−KSL cells; 12 weeks post-transplant, vs day 0 34−KSL cells and progeny of TSF alone, 100 ng/mL PTN",> 10 fold
same,"CRU frequency, fold increased compared to input 34−KSL cells",BM 34−KSL cells; 24 weeks post-transplant,4 fold
same,multilineage differentiation potential of HSCs,34−KSL cells,did not alter the normal multilineage differentiation potential
same,GFI-1 expression,GFI-1,upregulation
same,HES-1 expression,HES-1,upregulation
same,expression of PTEN,PTEN,down-modulated
